Source: article PMC8712518

Legend:
[1] = target: TolB75-RNC, formylated ribosome-nascent-chain complex carrying the 75 N-terminal amino acids of TolB (not stated | E. coli) (UniProt P0A855)
[2] = target: DnaK75-RNC, ribosome-nascent-chain complex carrying a 75 amino acid-long nascent chain of DnaK (not stated | E. coli) (UniProt P0A6Y8)
[3] = target: proOmpA75-RNC, ribosome-nascent-chain complex carrying a 75 amino acid-long nascent chain of proOmpA (not stated | E. coli) (UniProt P0A910)
[4] = target: RNaseH75-RNC, ribosome-nascent-chain complex carrying a 75 amino acid-long nascent chain of RNaseH (not stated | E. coli) (UniProt P0A7Y4)
[5] = target: TolB75-RNC after deformylation of the nascent chain by PDF (not stated | E. coli) (UniProt P0A855); test: stopped-flow fluorescence kinetics (chase); preformed 70S-PDF(Bpy) or RNC-PDF(Bpy) complex mixed with excess unlabeled PDF (15 µM); Bodipy fluorescence; buffer A; 10 °C; single-exponential fit
[6] = target: vacant 70S ribosomes from E. coli MRE600 (E. coli); test: as above
[7] = target: vacant 70S ribosomes from E. coli MRE600 (E. coli); test: fluorescence polarisation; equilibrium titration of PDF(Bpy) (200 nM) with 70S ribosomes; fluorescence anisotropy; 10 °C; corrected for light scattering; hyperbolic fit
[8] = target: vacant 70S ribosomes from E. coli MRE600 (E. coli); test: stopped-flow fluorescence kinetics (titration, global fit); PDF(Bpy) (100 nM) mixed with 70S ribosomes (0.5-2 µM); buffer A; 10 °C; global fit to a one-step binding model in KinTek Explorer; Kd,calc = k-1/k1
[9] = target: vacant 70S ribosomes from E. coli MRE600 (E. coli); test: stopped-flow fluorescence kinetics, extrapolated; rate constants measured at 10 °C, extrapolated to 37 °C by Eq. 3 with single-turnover deformylation of TolB75-RNC as the reference; Kd,calc from the extrapolated rate constants
[10] = target: TolB75-RNC, formylated ribosome-nascent-chain complex carrying the 75 N-terminal amino acids of TolB (not stated | E. coli) (UniProt P0A855); test: stopped-flow fluorescence kinetics (association); PDF(Bpy) (300 nM) rapidly mixed with 70S ribosomes or TolB75-RNC (420 nM); buffer A; 10 °C; single-exponential fit, apparent rate at one concentration
[11] = target: vacant 70S ribosomes from E. coli MRE600 (E. coli); test: as above

UniProt P0A910, sequence (P0A910 whole entry, looked up, one chain of several): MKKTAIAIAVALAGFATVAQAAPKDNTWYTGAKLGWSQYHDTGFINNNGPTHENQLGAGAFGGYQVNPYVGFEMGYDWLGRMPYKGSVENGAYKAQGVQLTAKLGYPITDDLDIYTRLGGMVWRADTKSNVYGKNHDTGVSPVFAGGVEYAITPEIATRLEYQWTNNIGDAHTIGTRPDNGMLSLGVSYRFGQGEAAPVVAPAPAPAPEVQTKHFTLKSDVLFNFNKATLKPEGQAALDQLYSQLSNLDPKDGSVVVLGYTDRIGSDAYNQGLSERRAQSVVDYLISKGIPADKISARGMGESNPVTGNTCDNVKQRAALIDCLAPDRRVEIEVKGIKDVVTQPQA
UniProt P0A6Y8, sequence (P0A6Y8 whole entry, looked up, one chain of several): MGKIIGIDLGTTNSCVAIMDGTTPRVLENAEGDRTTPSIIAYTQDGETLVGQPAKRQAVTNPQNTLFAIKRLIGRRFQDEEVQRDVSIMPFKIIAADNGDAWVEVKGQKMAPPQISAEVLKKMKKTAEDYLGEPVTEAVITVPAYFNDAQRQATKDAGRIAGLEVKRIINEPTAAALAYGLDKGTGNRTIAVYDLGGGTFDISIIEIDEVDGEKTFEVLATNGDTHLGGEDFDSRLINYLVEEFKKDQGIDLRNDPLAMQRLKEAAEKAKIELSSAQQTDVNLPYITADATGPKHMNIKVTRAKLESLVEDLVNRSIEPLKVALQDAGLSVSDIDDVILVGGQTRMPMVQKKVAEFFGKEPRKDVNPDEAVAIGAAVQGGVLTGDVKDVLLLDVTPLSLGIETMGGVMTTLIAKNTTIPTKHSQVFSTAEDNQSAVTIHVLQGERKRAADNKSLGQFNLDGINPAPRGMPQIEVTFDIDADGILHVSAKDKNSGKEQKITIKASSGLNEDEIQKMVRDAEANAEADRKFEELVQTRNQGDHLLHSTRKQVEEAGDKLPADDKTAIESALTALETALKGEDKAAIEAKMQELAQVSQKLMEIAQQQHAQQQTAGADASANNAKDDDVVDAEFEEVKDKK
UniProt P0A7Y4, sequence (P0A7Y4 whole entry, looked up, one chain of several): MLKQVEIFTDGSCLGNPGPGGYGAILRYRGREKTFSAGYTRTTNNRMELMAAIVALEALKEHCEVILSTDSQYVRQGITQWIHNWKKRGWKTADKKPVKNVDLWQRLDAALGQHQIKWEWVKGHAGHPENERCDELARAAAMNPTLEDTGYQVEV

Row | Binder | KM of nascent-chain deformylation by PDF, multiple turnover, 37 °C (TLC of f[35S]Met and [35S]Met) [1] | KM of nascent-chain deformylation by PDF, multiple turnover, 37 °C (TLC of f[35S]Met and [35S]Met) [2] | KM of nascent-chain deformylation by PDF, multiple turnover, 37 °C (TLC of f[35S]Met and [35S]Met) [3] | KM of nascent-chain deformylation by PDF, multiple turnover, 37 °C (TLC of f[35S]Met and [35S]Met) [4] | koff [5] | koff [6] | Kd [7] | Kd [8] | koff [8] | kon [8] | Kd [9] | koff [9] | kon [9] | apparent rate of binding at 420 nM RNC [10] | apparent rate of binding at 420 nM 70S ribosomes [11]
1 | peptide deformylase (PDF), unlabeled, with C-terminal His6-tag (enzyme) MSVLQVLHIPDERLRKVAKPVEEVNAEIQRIVDDMFETMYAEEGIGLAATQVDIHQRIIVIDVSENRDERLVLINPELLEKSGETGIEEGCLSIPEQRALVPRAEKVKIRALDRDGKPFELEADGLLAICIQHEMDHLVGKLFMDYLSPLKQQRIRQKVEKLDRLKARA | 0.25 µM | 0.5 µM | 0.3 µM | 0.6 µM |  |  |  |  |  |  |  |  |  |  | 
2 | PDF(Bpy), peptide deformylase labelled at the C-terminus with Bodipy-FL (enzyme, Bodipy-FL on the C-terminal peptide CSDSK-Bpy) MSVLQVLHIPDERLRKVAKPVEEVNAEIQRIVDDMFETMYAEEGIGLAATQVDIHQRIIVIDVSENRDERLVLINPELLEKSGETGIEEGCLSIPEQRALVPRAEKVKIRALDRDGKPFELEADGLLAICIQHEMDHLVGKLFMDYLSPLKQQRIRQKVEKLDRLKARA |  |  |  |  | 27 s⁻¹ | 33 s⁻¹ | 2100 nM | 2100 nM | 29 s⁻¹ | 1.4e+07 M⁻¹ s⁻¹ | 2000 nM | 70 s⁻¹ | 4e+07 M⁻¹ s⁻¹ | 40 s⁻¹ | 44 s⁻¹
